T1: IL-32alpha (ImmunoTools) (human, UniProt P24001-4 1-131, limits assumed)
T1 construct: Bought from ImmunoTools; also called IL-32α
T1 sequence (looked up): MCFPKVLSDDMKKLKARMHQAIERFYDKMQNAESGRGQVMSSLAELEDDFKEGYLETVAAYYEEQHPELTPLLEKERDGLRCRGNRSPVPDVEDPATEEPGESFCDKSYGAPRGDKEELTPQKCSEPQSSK


How the values were obtained:
IL-32alpha (ImmunoTools) [1] = target: T1, IL-32alpha (ImmunoTools); assay: ELISA, antigen coated on plate
Method: (§1) EC50 binding of exemplary anti-IL-32 antibodies of the present invention to IL-32γ (R&D) or IL-32α (ImmunoTools), was determined by ELISA. Serial dilutions of MABs (from 100,000 ng/ml down to 1.69 ng/ml) were incubated for 2 hours with antigen-coated plates (coating overnight at 1 μg/ml in PBS, followed by wash out and blocking with 2% BSA in PBS). The plates were subsequently washed and binding of MABs was detected with anti-human HRP-conjugated Fc-gamma-specific secondary antibody (Jackson ImmunoResearch, Europe Ltd., Cambridgeshire, UK). Concentrations of MAB resulting in half of maximal binding to respective antigens (EC50, ng/ml) were calculated using Prism 4 GraphPad software on sigmoidal dose-response curves (variable slope, 4 parameters) obtained by plotting the log of the concentration versus OD 450 nm measurements; for the results see FIG. 3 and Table 4 below.

IL-32alpha (ImmunoTools) [2] = target: T1, IL-32alpha (ImmunoTools); assay: ELISA, antigen coated at 1 µg/ml, serial dilutions of MAB
Method: as §1

EC50 (IL-32alpha (ImmunoTools) [2])	Binder	binding result (IL-32alpha (ImmunoTools) [1])
	anti-IL-32 antibody 14B3 (IgG1, lambda) (antibody, also called MAB 14B3) heavy: not shown light: SYELTQPPSVSVSPGQTARITCSGDALPETYVYWYQQKSGQAPVKLIYEDSERPSGIPERFSGSSSGTLATLTISGAHVEDEADYYCYSTDSSGIGVFGGGTKLTVLSQPKAAPSVTLFPPSSEELQANKATLVCLISDFYPGAVTVAWKADSSPVKAGVETTTPSKQSNNKYAASSYLSLTPEQWKSHKSYSCQVTHEGSTVEKTVAPTECS	no binding (tested: 100 ug/ml (highest concentration tested))
	anti-IL-32 antibody 19A1 (IgG1, lambda) (antibody, also called MAB 19A1) heavy: not shown light: SYELTQPPSVSVSPGQTARITCSGDALPETYVYWYQQKSGQAPVKLIYEDSERPSGIPERFSGSSSGTLATLTISGAHVEDEADYYCYSTDSSGIGVFGGGTKLTVLSQPKAAPSVTLFPPSSEELQANKATLVCLISDFYPGAVTVAWKADSSPVKAGVETTTPSKQSNNKYAASSYLSLTPEQWKSHKSYSCQVTHEGSTVEKTVAPTECS	no binding (tested: 100 ug/ml (highest concentration tested))
	anti-IL-32 antibody 26A6 (IgG1, lambda) (antibody, V domains shown, IgG1, lambda; also called MAB 26A6) VH: QVQLVESGGGVVQPGRSLRLSCVASGLTFRTYGMHWVRQAPGNGLEWVAIIWHDGNKKYFADSVKGRFTISRDNSKNSLYLQMNSLRVEDTAVYYCAREMNGIDVWGQGTTVTVSS VL: SYELTQPPSVSVSPGQTARITCSGDALPETYVYWYQQKSGQAPVKLIYEDSERPSGIPERFSGSSSGTLATLTISGAHVEDEADYYCYSTDSSGIGVFGGGTKVTVLS	no binding (tested: 100 ug/ml (highest concentration tested))
> 30 µg/mL	anti-IL-32 antibody 2C2 (IgG3, lambda) (antibody, V domains shown, Human patient-derived antibody, recombinantly expressed; the chains are put together from these; also called MAB 2C2; exemplary anti-IL-32 2C2 antibody) VH: QLRVQESGPGLLKPAETLSLTCSVSSGSVSNSRYYWAWIRQSPGKGLEWIGSMYYRGRSYYNPSLKSRLTISIDTSKNQFSLKLTSLTAADTAVYYCAAAVYHDLDYWGQGTLVTVSS VL: QSVLTQPPSVSAAPGQKVTISCSGSGSSIGNNYVSWYQQLPGAAPKLLIYDNTKRPSGIPDRFSGSKSGTSATLAITGLQPGDAADYYCGTWDSSFSVFWVFGGGTKLTVLS	
